Consider two molecules from PMC10397247.

Assay in all cases: two-hybrid library CCNG1;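 also: natural log of median RNA to DNA barcode read ratio; higher means stronger binding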
The target in one assay is T1, 4H3070-bA.
T1 chain: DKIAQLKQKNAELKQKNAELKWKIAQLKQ

In another assay the target is T2, 4H496-bA.
T2 chain: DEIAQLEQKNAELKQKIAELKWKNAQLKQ

In another assay the target is T3, 4H3632-bA.
T3 chain: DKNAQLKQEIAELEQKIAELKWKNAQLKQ

In the next assay the target is T4, 4H2691-bA.
T4 chain: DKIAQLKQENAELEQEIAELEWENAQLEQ

A further assay deals with T5, 4H342-bA.
T5 chain: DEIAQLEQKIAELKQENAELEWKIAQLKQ

A further assay deals with T6, 4H953-bH.
T6 chain: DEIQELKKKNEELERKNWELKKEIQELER

The target of a further assay is T7, 4H496-bH.
T7 chain: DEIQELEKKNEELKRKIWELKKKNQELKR

Another assay has as its target T8, 4H3070-bH.
T8 chain: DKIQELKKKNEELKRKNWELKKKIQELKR
The following applies: mean of both orientations.

The target of the next assay is T9, 4H342-bH.
T9 chain: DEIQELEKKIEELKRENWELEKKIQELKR

The target of another assay is T10, 4H3632-bH.
T10 chain: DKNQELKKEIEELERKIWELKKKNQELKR

B1: 4H2691-bA (peptide)
chain: DKIAQLKQENAELEQEIAELEWENAQLEQ
For B1, the interaction score was 0.439 in the assay with 4H3070-bA; -3.04 in the assay with 4H496-bA; -0.861 with 4H3632-bA; -1.17 with 4H2691-bA; -0.443 with 4H342-bA; -0.501 with 4H953-bH.

B2: 4H3070-bH (peptide)
chain: DKIQELKKKNEELKRKNWELKKKIQELKR
For B2, the interaction score is -0.307 with 4H496-bH, 0.665 with 4H3070-bH, 1.49 with 4H342-bH and -0.214 in the assay with 4H3632-bH.
